Experimental data: PMC10491607 (Cell Discovery, 2023)

Molecular target: T1, Angiotensin-converting enzyme 2 (ACE2) (UniProt Q9BYF1 18-805, glycosylation moieties seen in the map)
T1 construct: source: co-transfected in HEK-293T cells for the current recordings
Assay: cryo-EM structure; ACE2-SIT1 complex bound to Pro, 3.3 Å overall (transmembrane domain 3.7 Å local)
Details: both partners purified

T1 sequence (Q9BYF1 18-805): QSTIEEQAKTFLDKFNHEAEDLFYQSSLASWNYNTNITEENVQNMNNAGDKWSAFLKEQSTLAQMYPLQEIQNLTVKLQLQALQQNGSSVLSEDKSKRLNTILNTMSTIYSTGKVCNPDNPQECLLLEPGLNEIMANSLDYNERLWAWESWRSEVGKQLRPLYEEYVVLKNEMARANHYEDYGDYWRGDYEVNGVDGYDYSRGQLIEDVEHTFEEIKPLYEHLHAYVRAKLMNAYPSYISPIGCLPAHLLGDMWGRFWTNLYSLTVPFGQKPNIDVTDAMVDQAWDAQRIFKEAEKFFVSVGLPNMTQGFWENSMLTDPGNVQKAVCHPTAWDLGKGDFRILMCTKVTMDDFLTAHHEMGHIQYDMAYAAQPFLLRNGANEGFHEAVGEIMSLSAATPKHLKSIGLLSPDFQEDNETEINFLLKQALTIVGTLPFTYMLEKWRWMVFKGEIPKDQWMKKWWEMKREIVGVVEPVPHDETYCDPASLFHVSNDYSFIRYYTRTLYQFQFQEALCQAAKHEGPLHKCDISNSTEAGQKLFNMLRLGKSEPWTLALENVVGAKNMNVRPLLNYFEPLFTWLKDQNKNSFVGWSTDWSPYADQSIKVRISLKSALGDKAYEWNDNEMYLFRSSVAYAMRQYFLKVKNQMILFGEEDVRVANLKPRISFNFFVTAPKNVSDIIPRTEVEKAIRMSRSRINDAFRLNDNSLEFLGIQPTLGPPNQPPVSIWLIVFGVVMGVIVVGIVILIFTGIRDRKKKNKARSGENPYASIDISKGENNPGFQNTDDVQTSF

binding result: binds
B1: SIT1 (SLC6A20) (natural protein)
chain: MEKARPLWANSLQFVFACISYAVGLGNVWRFPYLCQMYGGGSFLVPYIIMLIVEGMPLLYLELAVGQRMRQGSIGAWRTISPYLSGVGVASVVVSFFLSMYYNVINAWAFWYLFHSFQDPLPWSVCPLNGNHTGYDEECEKASSTQYFWYRKTLNISPSLQENGGVQWEPALCLLLAWLVVYLCILRGTESTGKVVYFTASLPYCVLIIYLIRGLTLHGATNGLMYMFTPKIEQLANPKAWINAATQIFFSLGLGFGSLIAFASYNEPSNNCQKHAIIVSLINSFTSIFASIVTFSIYGFKATFNYENCLKKVSLLLTNTFDLEDGFLTASNLEQVKGYLASAYPSKYSEMFPQIKNCSLESELDTAVQGTGLAFIVYTEAIKNMEVSQLWSVLYFFMLLMLGIGSMLGNTAAILTPLTDSKIISSHLPKEAISGLVCLVNCAIGMVFTMEAGNYWFDIFNDYAATLSLLLIVLVETIAVCYVYGLRRFESDLKAMTGRAVSWYWKVMWAGVSPLLIVSLFVFYLSDYILTGTLKYQAWDASQGQLVTKDYPAYALAVIGLLVASSTMCIPLAALGTFVQRRLKRGDADPVA
notes: also called WT; source: co-transfected in HEK-293T cells for the current recordings
